Experimental data published in article PMC4030946, “Enantiocomplementary Yarrowia lipolytica Oxidoreductases: Alcohol Dehydrogenase 2 and Short Chain Dehydrogenase/Reductase” (Biomolecules, 2013).

T1: YlSDR (Yarrowia lipolytica, UniProt Q6CEE9)
T1 construct: gene YALI0B16192g; full length, N-terminal His-tag (vector pK470), E. coli BL21 (DE3) Gold, purified
T1 sequence (Q6CEE9 1-278): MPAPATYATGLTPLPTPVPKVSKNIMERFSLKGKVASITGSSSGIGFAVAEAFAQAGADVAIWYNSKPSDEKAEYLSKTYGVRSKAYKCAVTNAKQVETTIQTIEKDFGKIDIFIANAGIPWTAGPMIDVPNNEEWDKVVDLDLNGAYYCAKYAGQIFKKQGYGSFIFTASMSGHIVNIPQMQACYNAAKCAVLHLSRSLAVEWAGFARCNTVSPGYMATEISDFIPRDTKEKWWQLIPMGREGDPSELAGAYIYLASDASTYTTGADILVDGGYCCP

B1: YlADH2 (Yarrowia lipolytica CLIB122) (protein)
chain: MSAPVIPKTQKGVIFETSGGPLMYKDIPVPVPADDEILVNVKFSGVCHTDLHAWKGDWPLDTKLPLVGGHEGAGVVVAKGKNVDTFEIGDYAGIKWINKACYTCEFCQVAAEPNCPNATMSGYTHDGSFQQYATANAVQAAHIPKNCDLAEIAPILCAGITVYKALKTAAILAGQWVAVTGAGGGLGTLAVQYAKAMGYRVLAIDTGADKEKMCKDLGAEVFIDFAKTKDLVKDVQEATKGGPHAVINVSVSEFAVNQSIEYVRTLGTVVLVGLPAGAVCKSPIFQQVARSIQIKGSYVGNRADSQEAIEFFSRGLVKSPIIIIGLSELEKVYKLMEEGKIAGRYVLDTSK

Tests used:
[1] = target: T1, YlSDR; assay: chiral GC of product after acetylation; assay type: biochemical; conditions: reduction to (R)-2-octanol; NADPH 11 mM; citrate 50 mM, pH 5.0, 28 °C; Tween 20
[2] = substrate: NC(=O)c1ccc[n+]([C@@H]2O[C@H](COP(=O)(O)OP(=O)(O)OC[C@H]3O[C@@H](n4cnc5c(N)ncnc54)[C@H](O)[C@@H]3O)[C@@H](O)[C@H]2O)c1; assay: purified protein; assay type: biochemical, Yarrowia lipolytica; conditions: oxidation of 10 mM (S)-2-octanol, potassium phosphate 50 mM, 40 mM KCl, pH 8.5, 28 °C, varied: cofactor
[3] = substrate: CCCCCCC(C)=O; assay: purified protein; assay type: biochemical, Yarrowia lipolytica; conditions: reduction, NADH co-substrate, potassium phosphate 50 mM, 40 mM KCl, pH 7.0, 28 °C, Tween 20
[4] = substrate: CCCCCC[C@H](C)O; assay: purified protein; assay type: biochemical, Yarrowia lipolytica; conditions: oxidation, NAD+ co-substrate, potassium phosphate 50 mM, 40 mM KCl, pH 8.5, 28 °C, Tween 20

Row | Molecule | chiral GC of product after acetylation [1] | Km [2] | kcat [2] | kcat/Km [2] | Km [3] | kcat [3] | kcat/Km [3] | Km [4] | kcat [4] | kcat/Km [4]
1 | CCCCCCC(C)=O [2-octanone] | (R)-2-octanol was prepared under the following conditions: purified YlSDR in citrate buffer |  |  |  |  |  |  |  |  | 
2 | B1 |  | 17.8 ± 1.26 mM | 3.43 ± 0.05 s⁻¹ | 190 ± 70 M⁻¹ s⁻¹ | 5.38 ± 0.76 mM | 0.56 ± 0.04 s⁻¹ | 100 ± 160 M⁻¹ s⁻¹ | 1.42 ± 0.03 mM | 1.05 ± 0.52 s⁻¹ | 740 ± 500 M⁻¹ s⁻¹
